Data taken from the DeepSol protein solubility set.

Assay: soluble on expression in E. coli; label from the status in PepcDB or PDB records

Soluble on expression in E. coli, not soluble:
MLPIIYSLRNCPYAMRARLAIFKAKQAVLLRDLVLSHKPAEMIAVSPKGTVPVLVLANSTVIEESLEVMLWALQQTDPDDLLHCQQEGALPEMLSLINEFDNGFKTSLEAYKCAKRYQEDNIAQCRVVCQQYIEQLEQRLTEHMFLMSDKESLADIALVPFIRQFARVERQWYLQSPYPRVRRWLNSYLQSPVFTKVMAKHPLWLDNQQDILFGVN
MGSDKIHHHHHHLNGHGYHVTGTKTTQDGVEAARMSGIECYQLVLTPELECDADELSALLQVDVLIVTLPASRTAEGGEGYAQAVQQLVNMARVFHVPRIIFTSSTSVYGDGSGTVRETSPLQPTTVAGKTLVSLEQWLQHLPDISVDILRLAGLVGGDRHPGRFLAGKTNLPRGNHGVNLVHQEDVLAAILLLLKLPNGGHIYNLCATEHPARQDFYPEQARRLHVSTPQFAPVTDSSQGRIVDGQRICHELGFDYQYPNPSTMPLNAGESR
MGSDKIHHHHHHMNARVNLNGLGTLHPMTSTRIATGTSGLDTILRGGLPSNRLYLLEGQPGSGKTTLALQFLLEGAAKGESCLYITLSETLDELQEVAQSHGWSLDALHIFELASAEAFLGDGRQQSILHPWELELDGTVKLIQAEVDRVKPQRVVFDSLSELRLLAQDSLRYRRQVLALKQFFAPRNITVLLVDDLTGTSEGRDSHLHSLCHGVVSLERLTLDFGAARRRMQVQKLRGVDFIAGYHDLSILRGGLRIYPRLIASDHHVTFIGDAVSSGVQEVDDLLHGGPLRGTSTLLTGPAGSGKTNLALQYVAAACARGEHCCIFEFDERTGTLLARAESLGLDLRRHLESGLLELRQMDPAELSPGEFAWQVRASVEQRNCRLLVIDSLNGYLSSMPQEKQLMLQMHELLSYLNQSGVTTFLINPQHGLVGTMSTGNLNISYMADTVILFRFFEAQGRIRKALSVIKNRSGAHEDAIRELRIGNSGIRLSAPLNDFHGVLTGTPHFIGDEAPLLGNDLARR
MGSDKIHHHHHHMAAVAHVKIDAAGEKRVLYLVDKSGFGGVQTIAYTLMRHGVDERIGMDFFFLRNINDRFGMEDVREPNVFYSRATHRYSLRPFVEILRFIREKKVSILHLNGNKSIILGLVIKKLFQPTIKIIAHEHGGVFDYSRWYAAFLKSFRNSFDLFITISNYRKHFLVERCLVAPSAIRVIDNFVDPARLATASASACGHTDRCDSEGDKPFVIGYVGGLSRIKGCDVLIRALPPLRERLGNFRVMIAGDGPARAELEELVAALGLGDIVSFLGFVDPPGIAYAQFDMMVIPSRSEEGPICLYEAWMMGLPVVASNAPVLNERIRDGETGILFQSDEPCDLAEKIYSVCRNPDVAAHIRAGGSCEAARHTVERYRGDLRDVYLSL
MYEVTKFGGEGKRLEDYREIIGDEALEAIKAKAENLKDKSFVHVNSTSFGGGVAEILHNLVPLMRDVGIDARWFVIEGTNEFFNVTKSFHNALQGNKELRLTEEMKKLYLEINKKNAEDIDLTQFDYVLIHDPQPAPLIEFYEKRQPWIWRCHIDLSDPNLEFWKFLRQFVEKYDRYIFHMEEYVQEDLNQEKVVIMPPSIDPLSEKNMELEHHHHHH
MSGQHRTRVGGVILAAGRSSRYESGNKLLATIDGKAVVRQVTETACKSSLSDAVAVLGHEKVAVAAALDGLSLSVQHNDEYATGQSASVRHGVEFARSAGWDAALFLLGDMPFVRVETIEELLEAYRTGTATVVVPEHEGRRGNPVLFDNCHFDSLASVSGDRGGRDIIETTEKTAFIEVSDPGVHWDIDTDADLAEFTDRRDSLLEHHHHHH
MGNQCQNGTLGSDYHNRFPREHAVGYVQGDSYLDLKKFDDTWPEVNNFKPTAASILRRGLDPTSINVLGRKTADLREHYIIGRKLGQGQFGTTYLCTEINTGCEYACKTIPKRKLITKEDVEDVRREIQIMHHLSGHKNVVAIKDVYEDGQAVHIVMELCAGGELFDRIQEKGHYSERKAAELIRIIVSIVAMCHSLGVMHRDLKPENFLLLDKDDDLSIKAIDFGLSVFFKPGQAFTELVGSPYYVAPEVLHKRYGPESDVWSAGVILYVLLSGVPPFWAETQQGIFDAVLKGHIDFQSDPWPKISDSAKDLIRKMLSHCPSERLKAHEVLRHPWICENGVATDQALDPSVISRLKQFSAMNKLKKLALRVIAERLSEEEIAGLREMFKAVDTKNRGVITFGELREGLRRFGAEFKDTEIGDIMEAAHNDNNVTIHYEEFIAATLPLNKIEREEHLLAAFTYFDKDGSGYITVDKLQRACGEHNMEDSLLEEIISEVDQNNDGQIDYAEFVAMMQGSNVGLGWRTMESSLNVALRDAPQVH
MTRTNKWTEREGKADPKYFSHTGNYGESPNHIKKQGSGKGNWGKPGDEIDDLIDNGEIPPVFKKDRRGSNLQSHEQKFENVQKE
MGSDKIHHHHHHMSVECFVTGGSGFVGQHLLAGLTAQGHKTWVLMRSPGNIERLKEQVGQLGGNPEYIHAVEGDISQEGLGLSEADKERVTSAAVFFHLAAQFSWGLTPERARTVNVQGALSVARLAASQRIRLLMVGGFMLQNLNHLASIGVDTQCPENTNWPAVYARVGGYEGSKLESHFAVIRYMQDADADYTIVHPATVCGHSENGHILDGQPLAELIRNLAQGRFKAIPGSASHWLPLVSVDYLVKMITCVAFDPSMANRQVLALYERTPNLQGMLGQIADTLKVKAPHRHIPIGLLRSILTIPGLATRLAISAESLNFIQTQRFDMGNSRQLERKYQFTHPDMTQALENTVRYVNGSLMKKSKSEGAGQRG
MAHHHHHHMGVDVGESAIGVDAVARPIGYGPFSAAAKARLAREKAHKAVETCDSAAAAASATVMKNVSLDTNLYLRLSLAGLPHPSQLQEWAYTSPEWRLAFVRLYRTILRLHNKAVAVSLRTARRQGSEAALSAATGMRATSQTTVAGAAVAATGADNSLAEDKDDYFLRYLLTPDQQEFGNRFVQEEFARHTDADAVAASIFYASWYEYVLQLASGVTAREMTEKEKRILTDEQKETLNSLRSAFLDLRSSQRPKYMP
LLQHAYNPINWYSWNDEAFKKAKEEDKPIFLSVGYSTCHWCHVMEKESFEDEEVAEIMNRNFVAIKVDKEERPDVDSVYMTVCQAMTGSGGWPMTIIMTPDKKPFFAGTYFPKYSRYNRPGVIDLLENVSEKWNTSRDILIKSGDEIIEAL
MAHHHHHHMWINKIGNKSASFINHKHFHPGNIKNLERVWLAEENEKKRKEEEEKYLKKREEQYKLYELKKQLRKNEEENKNDVHNILYDINNELKKENSFKKKILHNSISNETTPNENIVNKILIRSKYDEDIFLKNHRSIYGSYYDKEKNKWGFKCCTNIDKNSKCTNNTNCSYNLNNNLIKKDLTKSKNKKKKKKKLIVDNSITAVLNKI
MNSNYKRYKMLVFDLDGTLLNNNHEIAFLTLEVLLALKEDFKIIIATGRRLSEVKNIRSQLKEISINENYLVTANGAEVFLQENLIFRYAMNYDLAKEILKINTDNVDVNLYTFDTWYSNADVKSPIMKHFIKDLGLNVIIGDLTKLNVDSVSKIVYYCDDLAILNKLDTEIKSKDFQDTRVFFSSKDLLEVTNINANKYNAIKNIAFLESIPLCDVLAFGDNNNDYEMLKNLGKGVLMKNANEFLKINLAKNEITRFSNNEDGVARFLIDFFKLNIKY

Soluble on expression in E. coli, soluble:
SSMLPSFGFTQEQVACVCEVLQQGGNLERLGRFLWSLPACDHLHKNESVLKAKAVVAFHRGNFRELYKILESHQFSPHNHPKLQQLWLKAHYVEAEKLCGRPLGAVGKYRVRRKFPLPRTIWDGEETSYCFKEKSRGVLREWYAHNPYPSPREKRELAEATGLTTTQVSNWFKNRRQRDRAAEAKERENTENNNSSSNKQNQLSPLEGGKPLMSSSEEEFSPPQSPDQNSVLLLQGNMGHARSSNYSLPGLTASQPSHGLQTHQHQLQDSLLGPLTSSLVDLGS
MNFAQVKDYLVDLQNRIVTGLEQVDGQSFRRDTWDRPEGGGGTSCVIEEGNVLERGGVNFSHVFGKGLPASATAARPELAGRAFEAAGVSLVLHPRNPYAPTVHMNVRFFAATKEGAEPVWWFGGGMDLTPYYGFEEDAVHFHQACKDALQPSGEEYYPRFKKWCDEYFYLKHRKEPRGIGGVFFDDLNQPDFATCFNLTRSVGDHFLAAYVPILQKRRDLPYGERERDFQAYRRGRYVEFNLVWDRGTLFGLQSGGRTESILMSLPPVVKWRYDWSPAAGSPEAKLYTDFLTGRDWLPLGLEHHHHHH
MGSSHHHHHHSSGLVPRGSHMSVPLYGFTSICGRRPEMEDAVSTIPRFLQSSSGSMLDGRFDPQSAAHFFGVYDGHGGSQVANYCRERMHLALAEEIAKEKPMLCDGDTWLEKWKKALFNSFLRVDSEIESVAPETVGSTSVVAVVFPSHIFVANCGDSRAVLCRGKTALPLSVDHKPDREDEAARIEAAGGKVIQWNGARVFGVLAMSRSIGDRYLKPSIIPDPEVTAVKRVKEDDCLILASDGVWDVMTDEEACEMARKRILLWHKKNAVAGDASLLADERRKEGKDPAAMSAAEYLSKLAIQRGSKDNISVVVVDLKPRRKLK
SWQTYVDTNLVGTGAVTQAAIIGHDGNTWATSAGFAVSPANGAALANAFKDATAIRSNGFELAGTRYVTIRADDRSVYGKKGSAGVITVKTSKAILIGVYNEKIQPGTAANVVEKLADYLIGQGF
SRTVALGIVAMACLVAIAHGGNFFQDAEVSWGQGRGKIVDGGRGLDLTLDRSSGSGFQSKSEYLFGKIDMQIKLVPGGWWNQELSDMSYRRMRWVQRKFMIYNYCTDAKRFPQGTPAECKLR
DLKDPIKISIPRYVLCGQGKDAHFEFEVKITVLDETWTVFRRYSRFREMHKTLKLKYAELAALEFPPKKLFGNKDERVIAERRSHLEKYLRDFFSVMLQSATSPLHINKVGLTLSKHTICEFSPFFKKGVFDYS
TLAYKEGFYYKPRIDYELLEKYGEGLIALTACLKGVPTYYASINEVKKAEEWVKKFKDIFGDDLYLELQANNIPEQEVANRNLIEIAKKYDVKLIATQDAHYLNPE
MHNMFPALTKTLSLQGYKIINSQTGSAAWSCGRRWFSSDKDDHDDVVTRIKIAPIKRTNEPLDKKRARLIYQSRKRGILETDLLLSGFAAKYLKKMNEEELEEYDSLLNELDWDIYYWATKNFKTSPLPDKWANSKLLKQLQEFSENKEKEILSMPDLSKYQ
MTSSTETTSTTPQVAVNDIGNEEAFLAAIDETIKYFNDGDIVDGVIVKVDRDEVLLDIGYKTEGVIPSRELSIKHDVDPNEVVKVGDEIEALVLQKEDKEGRLILSKKRAQYERAWGTIEKIKEEDGIVTGTVIEVVKGGLILDIGLRGFLPASLVEMRRVRDLQPYVGKELEAKIIELDKNRNNVVLSRRAWLEQTQSEVRQTFLTTLQKGQVRSGVVSSIVNFGAFVDLGGVDGLVHVSELSWKHIDHPSEVVEVGQEVTVEVLDVDMDRERVSLSLKATQEDPWQQFARTHQIGQVVPGKVTKLVPFGAFVRVDEGIEGLVHISELAERHVEIPEQVVQVNDEIFVKVIDIDLERRRISLSLKQANEAFGGDPASVEFDPTLYGMAASYDDQGNYIYPEGFDPETNDWLEGFESQREVWETQYAEAQQRFEQHQAQVIKSREADAQAEAEGAAAPAAGGSGAGVSGGSYSSESDDNSGALASDEALAALREKLAGGQSLEHHHHHH
VDAFVGTWKLVDSKNFDDYMKSLGVGFATRQVGNMTKPTTIIEVNGDTVIIKTQSTFKNTEISFKLGVEFDETTADDRKVKSIVTLDGGKLVHVQKWNGQETSLVREMVDGKLILTLTHGTAVCTRTYEKQA
MGHHHHHHSHEKMNGSHRDQGSSALSGVGGIRLPNGKLKCDICGIICIGPNVLMVHKRSHTGERPFQCNQCGASFTQKGNLLRHIKLHSGEKPFKCHLCNYACRRRDALTGHLRTHSVGKPHKCGYCGRSYKQRSSLEEHKERCHNYLESMGLPGTLYPVIKEETNHSEMAEDLCKIGSERSLVLDRLASNVAKRKSSMP
